Laboratory results: patent publication EP4755917A1 (Fortvita Biologics Inc., dated 2026)

Target: T1, Human OX40L (antigen of the ForteBio affinity assay) (human, UniProt P23510 51-183, limits assumed)
T1 construct: It may be the Acro His-tagged protein, but nothing ties it to that; also called CD252; CD134L
T1 sequence (looked up): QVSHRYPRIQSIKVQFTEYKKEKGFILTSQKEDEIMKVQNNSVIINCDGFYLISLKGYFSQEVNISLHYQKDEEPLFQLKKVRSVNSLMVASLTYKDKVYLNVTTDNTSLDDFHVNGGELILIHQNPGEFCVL
Assay: ForteBio (biolayer interferometry)

B1: HZ18 (antibody, human IgG4 S228P, kappa, V domains shown)
VH: EVQLVQSGAEVKKPGATVKISCKVSGYSFTGYRIHWVQQAPGKGLEWMGYVDPYDDKTDYSQKSKGRVTITADTSTDTAYMELSSLRSEDTAVYYCAREGFAYWGQGTLVTVSS
VL: DIQMTQSPSSLSASVGDRVTITCTSSSSLRYMHWYQQKPGKAPKLLIYNTFDLASGVPSRFSGSGSGTDFTLTISSLQPEDFATYYCQQRTTYPPTFGQGTKLEIKR
notes: Humanized antibody expressed in HEK293; also called humanized anti-OX40L antibody
- Kd: 0.307 nM

B2: HZ22 (antibody, human IgG4 S228P, kappa, V domains shown)
VH: QVQLQESGPGLVKPSQTLSLTCTVSGYAVTGDYAWSWIRQPPGKRLEWIGYISSSAGTNYNPSLKSRVTISVDTSKNQFSLKLSSVTAADTAVYYCARDLYYGGRNQWYFDVWGQGTLVTVSS
VL: DIQMTQSPSSLSASVGDRVTITCSATSSIIYMHWYQQKPGKAPKLLIYDTSKLPSGVPSRFSGSGSGTDFTLTISSLQPEDFATYYCHQRSSFPFTFGGGTKVEIKR
notes: as for B1
- Kd: 0.379 nM
